Experimental data reported in patent US5942405A, “Therapeutic and screening methods using C3a receptor and C3a” (priority 1997, dated 1999).

T1: C3a Receptor (Homo sapiens, UniProt Q16581)
T1 sequence (Q16581 1-482 F151C): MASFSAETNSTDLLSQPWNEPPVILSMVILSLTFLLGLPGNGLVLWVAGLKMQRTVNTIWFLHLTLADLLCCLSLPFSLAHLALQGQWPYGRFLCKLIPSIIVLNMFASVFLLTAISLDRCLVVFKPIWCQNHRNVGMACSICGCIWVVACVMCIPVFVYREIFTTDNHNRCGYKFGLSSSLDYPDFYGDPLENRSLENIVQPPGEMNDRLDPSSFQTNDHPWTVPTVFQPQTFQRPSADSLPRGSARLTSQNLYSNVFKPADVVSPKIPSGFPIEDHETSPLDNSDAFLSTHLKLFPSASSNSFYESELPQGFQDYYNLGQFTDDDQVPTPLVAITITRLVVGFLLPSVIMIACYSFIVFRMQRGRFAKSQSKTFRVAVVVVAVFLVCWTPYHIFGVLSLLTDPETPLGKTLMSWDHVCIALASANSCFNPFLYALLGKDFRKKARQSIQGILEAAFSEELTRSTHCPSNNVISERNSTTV

B1: rC5a: Human rC5a was expressed in E. coli and purified to homogeneity (protein, UniProt P01031 678-751, looked up)
C5a anaphylatoxin: TLQKKIEEIAAKYKHSVVKKCCYDGACVNNDETCEQRAARISLGPRCIKAFTECCVVASQLRANISHKDMQLGR
modifications: C5a anaphylatoxin recombinant, E. coli
notes: Human rC5a was expressed in E. coli and purified to homogeneity

Target: T1, C3a Receptor
Assay: Calcium mobilization by Fura 2 loaded RBL-2H3 cells stably expressing C3a Receptor
Assay type: cell-based
Set-up: cDNA encoding a complete orphan GPCR of 482 amino acids; expressed in transfected cells
Settings: for EC50: Fura 2 loaded RBL-2H3 cells expressing C3a Receptor, read-out: EC50, mobilization of intracellular Ca2+; for mobilization of intracellular Ca2+ (response in words): RBL-2H3 cells expressing C3a Receptor, Fig. 4: rC5a 100 nM, C3a analogue peptide 1 uM
Method: (A) Electrophysiological response of Xenopus oocytes injected with cRNA for C3a Receptor (10 ng), total U937 RNA (25 ng), or a mixture of C3a Receptor (10 ng) and U937 RNA (25 ng) to 10 nM rC5a, 10 nM C3a analogue peptide, 10 nM platelet activating factor (PAF), 10 nM fMetLeuPhe. Inset, represents typical response of oocytes co-injected with C3a Receptor cRNA+U937 RNA to 10 nM C3a. (B) Electrophysiological response of oocytes injected with C5a-R cRNA (10 ng), U937 RNA (25 ng) or a mixture of C5a-R and U937 RNA, to 10 nM rC5a or 10 nM C3a analogue peptide. […] Calcium mobilization by Fura 2 loaded cells expressing C5a receptor (FIGS. 4A & 4C) or C3a Receptor (FIGS. 4B & 4D) in response to rC5a (10 nM, FIG. 4A or 100 nM, FIG. 4B) or C3a analogue peptide (1 uM, FIGS. 4C & 4D).
To prepare C3a Receptor for expression in mammalian cells, a 1.6 kb cDNA fragment was obtained by PCR amplification that encompassed the entire C3a Receptor open reading frame. This fragment was subcloned into KpnI/Hind III sites of the mammalian expression vector, pCDN (Aiyar, N., et al (1994) Mol. Cell. Bio. 131, 75-86). Oligonucleotide primers used for PCR amplification were 5'-GA AGT GGT ACC ATG GCG TC-3' (SEQ ID NO:4) and 5'-GC TCCAAGCTTTCACACAGTTG-3' (SEQ ID NO:5) (the translation start and stop codons are underlined). RBL-2H3 cells were electroporated with either C3a Receptor or C5a-R in the pCDN mamalian expression vector (Aiyar, N., et al (1994) Mol. Cell. Bio. 131, 75-86), exactly as described (DeMartino, J. A., et al (1994) J. Biol Chem. 269, 14446-14450). Individual G418 resistant (400 μg/ml) colonies were isolated and expanded. Clonal cell lines expressing either C3a Receptor or C5a-R were chosen for further functional and binding studies.
RBL-2H3 cells (Siraganian, R. P., et al (1982) Fed. Proc. 41, 30-34), a rat basophil cell line, when transfected with an expression plasmid encoding the C5a-R express receptors that are functionally active (DeMartino, J. A., et al (1994) J. Biol. Chem. 269, 14446-14450). RBL-2H3 cells were stably transfected with mammalian expression plasmids encoding the C5a-R or C3a Receptor and Fura 2 loaded cells were tested for a C5a or C3a induced mobilization of intracellular Ca^2+.
Fura 2 loaded clonal cell lines expressing C5a-R or C3a Receptor were assayed for functional response, Ca^2+ mobilization, as described (Saussy, D. L. Jr., et al (1989) J. Biol. Chem. 264, 19845-19855).

Molecule	EC50 [nM]	mobilization of intracellular Ca2+ (response in words)	mobilization of intracellular Ca2+ (response in words) (listed as native human C3a)	mobilization of intracellular Ca2+ (response in words) (listed as C3a synthetic peptide)
C3a: C3a was purchased from Advanced Research Technologies, San Diego; anaphylatoxin; radioiodinated for binding	0.3	bind and respond	responded	
WWGKKYRASKLGLAR [C3a analogue synthetic peptide, reference compound]	3.9	respond		robust response
B1		not C3a Receptor expressing cells responded		
